Target: Mouse IMPα1 residues 70–529 (lacking the IMPβ binding domain) (mouse, UniProt P52293 70-529)
Assay: crystal structure
Settings: both partners purified

Row | Binder | binding result
1 | SGKRKKIRTIAAYPLGVGKS [HeV M NLS1 peptide (untagged)] | binds
2 | VRRAGKYYSVEYCKRKID [HeV M NLS2 peptide (untagged)] | binds

Reference: paper PMC10303457 (Viruses, 2023)
